Experimental findings from the supplement of paper PMC10567573 are described below.

B1: DLC1 (parent)
chain: AIQGISEKEKAEIEAKEACDWLRA
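Further: lentivirally expressed fusions sorted by FACS into six bins by GFP to DsRed ratio, PSI derived from sequencing read proportions per bin multiplied by bin number.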

In this data set the parent is B1. Nature of the data set: protein stability index of a GFP-peptide fusion (GPS, HEK-293T) (PSI 1-6); higher = more stable. Conditions: c terminus: a fixed tail appended.
Turning to AIQGISEKEKAEIEAKEVCDWLRA [A18V], the protein stability index was determined as 4.26.
As to AIQGISEKEKAEIEAKEYCDWLRA [A18Y], the protein stability index is 4.33.
For the variant AIQGISEKEKAEIEAKEWCDWLRA [A18W], the protein stability index was determined as 4.27.
Then AIQGISEKEKAEIEAKEAGDWLRA [C19G], with 4.43; and AIQGISEKEKAEIEAKEAFDWLRA [C19F], with 4.47; and AIQGISEKEKAEIEAKEAIDWLRA [C19I], with 4.09.
The value for AIQGISEKEKAEIEAKEADDWLRA [C19D] was 5.19; that for AIQGISEKEKAEIEAKEAPDWLRA [C19P] was 4.33.
Then AIQGISEKEKAEIEAKEAKDWLRA [C19K], with 4.63; and AIQGISEKEKAEIEAKEAVDWLRA [C19V], with 4.77.
In the case of AIQGISEKEKAEIEAKEAQDWLRA [C19Q], the protein stability index was determined as 4.77.
Then AIQGISEKEKAEIEAKEAWDWLRA [C19W], with 4.45; and AIQGISEKEKAEIEAKEAEDWLRA [C19E], with 5.65.
The value for AIQGISEKEKAEIEAKEAMDWLRA [C19M] was 4.39; that for AIQGISEKEKAEIEAKEANDWLRA [C19N] was 4.89; that for AIQGISEKEKAEIEAKEATDWLRA [C19T] was 5.12.
Then AIQGISEKEKAEIEAKEAHDWLRA [C19H], with 4.75; and AIQGISEKEKAEIEAKEARDWLRA [C19R], with 4.45.
Regarding AIQGISEKEKAEIEAKEAYDWLRA [C19Y], the protein stability index was 4.64.
Then AIQGISEKEKAEIEAKEASDWLRA [C19S], with 4.6.
For the variant AIQGISEKEKAEIEAKEALDWLRA [C19L], the protein stability index was determined as 3.98.
Then AIQGISEKEKAEIEAKEAADWLRA [C19A], with 4.79.
Then AIQGISEKEKAEIEAKEACDILRA [W21I], with 4.62; and AIQGISEKEKAEIEAKEACDELRA [W21E], with 5.01; and AIQGISEKEKAEIEAKEACDFLRA [W21F], with 4.66.
The value for AIQGISEKEKAEIEAKEACDPLRA [W21P] was 5.
Take AIQGISEKEKAEIEAKEACDALRA [W21A]: the protein stability index amounted to 5.41.
As for AIQGISEKEKAEIEAKEACDTLRA [W21T], the protein stability index worked out at 5.17.
Then AIQGISEKEKAEIEAKEACDQLRA [W21Q], with 5.47; and AIQGISEKEKAEIEAKEACDGLRA [W21G], with 5.35; and AIQGISEKEKAEIEAKEACDMLRA [W21M], with 5.6.
The value for AIQGISEKEKAEIEAKEACDVLRA [W21V] was 4.89; that for AIQGISEKEKAEIEAKEACDRLRA [W21R] was 5.4.
The value for AIQGISEKEKAEIEAKEACDNLRA [W21N] was 5.1; that for AIQGISEKEKAEIEAKEACDHLRA [W21H] was 5.29; that for AIQGISEKEKAEIEAKEACDYLRA [W21Y] was 4.68.
As to AIQGISEKEKAEIEAKEACDCLRA [W21C], the protein stability index was 5.35.
The value for AIQGISEKEKAEIEAKEACDLLRA [W21L] was 5.22; that for AIQGISEKEKAEIEAKEACDKLRA [W21K] was 5.44; that for AIQGISEKEKAEIEAKEACDDLRA [W21D] was 5.77.
Turning to AIQGISEKEKAEIEAKEACDSLRA [W21S], the protein stability index worked out at 5.05.
As to AIQGISEKEKAEIEAKEACTWLRA [D20T], the protein stability index turned out to be 4.12.
With AIQGISEKEKAEIEAKEACKWLRA [D20K], the protein stability index was 4.05.
For the variant AIQGISEKEKAEIEAKEACFWLRA [D20F], the protein stability index stood at 3.75.
Turning to AIQGISEKEKAEIEAKEACAWLRA [D20A], the protein stability index amounted to 3.99.
Then AIQGISEKEKAEIEAKEACPWLRA [D20P], with 3.56; and AIQGISEKEKAEIEAKEACMWLRA [D20M], with 3.63.
The value for AIQGISEKEKAEIEAKEACYWLRA [D20Y] was 3.97; that for AIQGISEKEKAEIEAKEACIWLRA [D20I] was 3.35; that for AIQGISEKEKAEIEAKEACSWLRA [D20S] was 4.28.
For the variant AIQGISEKEKAEIEAKEACHWLRA [D20H], the protein stability index was determined as 3.95.
The value for AIQGISEKEKAEIEAKEACWWLRA [D20W] was 3.98; that for AIQGISEKEKAEIEAKEACVWLRA [D20V] was 3.81; that for AIQGISEKEKAEIEAKEACCWLRA [D20C] was 3.21.
Then AIQGISEKEKAEIEAKEACEWLRA [D20E], with 4.27; and AIQGISEKEKAEIEAKEACNWLRA [D20N], with 4.3.
Then AIQGISEKEKAEIEAKEACRWLRA [D20R], with 3.19; and AIQGISEKEKAEIEAKEACGWLRA [D20G], with 3.56; and AIQGISEKEKAEIEAKEACLWLRA [D20L], with 3.68.
For AIQGISEKEKAEIEAKEACQWLRA [D20Q], the protein stability index was 3.91.
Then AIQGISEKEKAEIEAKEACDWLRY [A24Y], with 4.72; and AIQGISEKEKAEIEAKEACDWLRI [A24I], with 4.44; and AIQGISEKEKAEIEAKEACDWLRS [A24S], with 4.65.
The value for AIQGISEKEKAEIEAKEACDWLRR [A24R] was 4.23; that for AIQGISEKEKAEIEAKEACDWLRF [A24F] was 4.32; that for AIQGISEKEKAEIEAKEACDWLRN [A24N] was 4.75.
Then AIQGISEKEKAEIEAKEACDWLRL [A24L], with 4.46; and AIQGISEKEKAEIEAKEACDWLRW [A24W], with 3.7.
Turning to AIQGISEKEKAEIEAKEACDWLRH [A24H], the protein stability index was determined as 4.66.
The value for AIQGISEKEKAEIEAKEACDWLRP [A24P] was 4.64; that for AIQGISEKEKAEIEAKEACDWLRG [A24G] was 4.78; that for AIQGISEKEKAEIEAKEACDWLRD [A24D] was 5.14.
The value for AIQGISEKEKAEIEAKEACDWLRV [A24V] was 4.58; that for AIQGISEKEKAEIEAKEACDWLRT [A24T] was 4.46.
Then AIQGISEKEKAEIEAKEACDWLRK [A24K], with 4; and AIQGISEKEKAEIEAKEACDWLRE [A24E], with 5.03; and AIQGISEKEKAEIEAKEACDWLRC [A24C], with 4.55.
Turning to AIQGISEKEKAEIEAKEACDWLRM [A24M], the protein stability index came to 3.52.
As for AIQGISEKEKAEIEAKEACDWLRQ [A24Q], the protein stability index was 4.67.
As to AIQGISEKEKAEIEAKEACDWHRA [L22H], the protein stability index was 5.
Then AIQGISEKEKAEIEAKEACDWFRA [L22F], with 4.61; and AIQGISEKEKAEIEAKEACDWKRA [L22K], with 5.38; and AIQGISEKEKAEIEAKEACDWNRA [L22N], with 5.24.
The value for AIQGISEKEKAEIEAKEACDWCRA [L22C] was 4.17; that for AIQGISEKEKAEIEAKEACDWYRA [L22Y] was 4.22; that for AIQGISEKEKAEIEAKEACDWQRA [L22Q] was 5.03.
On to AIQGISEKEKAEIEAKEACDWTRA [L22T], for which the protein stability index was 4.82.
Then AIQGISEKEKAEIEAKEACDWVRA [L22V], with 4.73.
Then AIQGISEKEKAEIEAKEACDWARA [L22A], with 5.03.
Then AIQGISEKEKAEIEAKEACDWDRA [L22D], with 5.49; and AIQGISEKEKAEIEAKEACDWWRA [L22W], with 4.28.
Take AIQGISEKEKAEIEAKEACDWMRA [L22M]: the protein stability index worked out at 4.73.
The value for AIQGISEKEKAEIEAKEACDWGRA [L22G] was 4.98; that for AIQGISEKEKAEIEAKEACDWIRA [L22I] was 4.98.
